Measured values taken from article PMC12796476 (Nature Communications, 2025).

Columns and labels:
[1] = target: full-length NEDD4-2-Venus (Homo sapiens, NEDD4L, UniProt Q96PU5, strain); experiment: FRET or BRET
[2] = target: Venus-tagged NEDD4-1 HECT domain (HECT4-1-Ven) (Homo sapiens, NEDD4, UniProt P46934); experiment: FRET or BRET
[3] = target: WW4-HECT4-2 domain of NEDD4-2, purified (Homo sapiens, NEDD4L (Q96PU5-1), UniProt Q96PU5-1); experiment: BLI
Sequence of WW4-HECT4-2 domain of NEDD4-2, purified (Q96PU5 541-975, one chain of several): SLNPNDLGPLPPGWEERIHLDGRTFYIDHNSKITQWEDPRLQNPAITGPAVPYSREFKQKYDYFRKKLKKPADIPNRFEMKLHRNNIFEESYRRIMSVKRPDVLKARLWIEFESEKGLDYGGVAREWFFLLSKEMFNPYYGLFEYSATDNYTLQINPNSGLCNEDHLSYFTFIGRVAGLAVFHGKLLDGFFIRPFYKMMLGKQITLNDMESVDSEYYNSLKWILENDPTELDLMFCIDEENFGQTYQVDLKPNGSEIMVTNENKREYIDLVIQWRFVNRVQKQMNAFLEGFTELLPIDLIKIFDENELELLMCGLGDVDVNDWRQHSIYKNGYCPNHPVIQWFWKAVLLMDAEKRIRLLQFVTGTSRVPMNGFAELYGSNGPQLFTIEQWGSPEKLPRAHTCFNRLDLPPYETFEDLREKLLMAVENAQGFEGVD

Sequence of full-length NEDD4-2-Venus (Q96PU5 whole entry, looked up, change not shown, the tested form may be a part): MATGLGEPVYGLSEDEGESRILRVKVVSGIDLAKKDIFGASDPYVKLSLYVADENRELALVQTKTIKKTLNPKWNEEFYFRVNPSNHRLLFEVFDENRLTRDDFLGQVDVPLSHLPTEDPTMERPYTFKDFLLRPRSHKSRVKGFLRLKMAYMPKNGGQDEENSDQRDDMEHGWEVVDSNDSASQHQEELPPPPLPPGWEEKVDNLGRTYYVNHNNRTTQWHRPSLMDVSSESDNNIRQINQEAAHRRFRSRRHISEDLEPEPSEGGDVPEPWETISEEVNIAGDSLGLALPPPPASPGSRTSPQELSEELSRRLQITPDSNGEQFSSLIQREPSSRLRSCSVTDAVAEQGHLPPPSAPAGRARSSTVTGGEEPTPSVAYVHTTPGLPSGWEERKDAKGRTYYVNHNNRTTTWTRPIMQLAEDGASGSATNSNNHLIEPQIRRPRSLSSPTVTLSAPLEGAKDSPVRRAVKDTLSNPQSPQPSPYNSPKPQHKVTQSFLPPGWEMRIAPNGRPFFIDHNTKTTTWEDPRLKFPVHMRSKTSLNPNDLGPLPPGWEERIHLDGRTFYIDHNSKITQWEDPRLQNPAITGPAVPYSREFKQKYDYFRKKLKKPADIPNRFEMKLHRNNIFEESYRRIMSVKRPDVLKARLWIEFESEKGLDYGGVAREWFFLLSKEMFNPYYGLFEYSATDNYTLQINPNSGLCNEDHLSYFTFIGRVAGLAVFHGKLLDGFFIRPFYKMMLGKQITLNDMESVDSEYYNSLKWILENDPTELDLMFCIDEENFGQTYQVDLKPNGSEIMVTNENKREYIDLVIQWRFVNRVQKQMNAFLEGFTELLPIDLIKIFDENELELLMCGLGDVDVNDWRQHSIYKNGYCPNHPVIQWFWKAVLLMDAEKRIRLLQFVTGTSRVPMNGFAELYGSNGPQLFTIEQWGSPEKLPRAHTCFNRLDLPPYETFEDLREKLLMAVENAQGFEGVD
Sequence of Venus-tagged NEDD4-1 HECT domain (HECT4-1-Ven) (P46934 984-1318): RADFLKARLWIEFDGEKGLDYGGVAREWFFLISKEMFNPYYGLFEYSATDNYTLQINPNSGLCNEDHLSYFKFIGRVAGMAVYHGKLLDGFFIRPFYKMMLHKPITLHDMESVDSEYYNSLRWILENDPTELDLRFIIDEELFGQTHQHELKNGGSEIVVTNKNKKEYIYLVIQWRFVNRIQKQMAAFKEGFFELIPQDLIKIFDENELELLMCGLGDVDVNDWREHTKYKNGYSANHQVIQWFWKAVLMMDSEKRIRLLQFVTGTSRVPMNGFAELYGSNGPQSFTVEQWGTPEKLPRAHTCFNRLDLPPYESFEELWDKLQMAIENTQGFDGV

Row | Binder | binding result [1] | binding result [2] | Kd [3] [nM]
1 | Cer-nb.C11 (VHH) VHH: QVQLQESGGGLVQAGGSLRLSCAASGNISDVWYMGWYRQAPGKEREFVAGIAYGTSTYYADSVKGRFTISRDNAKNTVYLQMNSLKPEDTAVYYCAVIITRFVSYPRQHTYWGQGTQVTVSS | binds | no binding | –
2 | nb.C11 (HIS-tagged, purified) (VHH) VHH: QVQLQESGGGLVQAGGSLRLSCAASGNISDVWYMGWYRQAPGKEREFVAGIAYGTSTYYADSVKGRFTISRDNAKNTVYLQMNSLKPEDTAVYYCAVIITRFVSYPRQHTYWGQGTQVTVSS | – | – | 2
